Source: patent publication US20170029841A1, “METHODS AND COMPOSITIONS FOR SELECTIVE REGULATION OF PROTEIN EXPRESSION” (priority 2015, published 2017)
Like-named read-outs stand apart in the source and are kept apart here.

Key:
[1] = test system: transgenic maize R0 plants (double copy events); experiment: R0 plant greenhouse glyphosate spray: vegetative tolerance and induced male sterility; type: in vivo; settings: vector configuration A
Description: Transformation vectors containing the recombinant DNA constructs were used with an Agrobacterium-based transformation method and maize immature embryos and techniques known in the art. Leaf samples of R0 plants were collected and molecular analysis was conducted to select transgenic plants containing a single copy (one insertion) or a double copy (two independent insertions) of the recombinant DNA construct and no presence of vector backbone. Single copy events were not sprayed with glyphosate and were selfed and advanced for R1 seed collection, while double copy events were used for R0 glyphosate spray to assess vegetative tolerance and induced male sterility. Transgenic plants that were not sprayed with glyphosate had normal anthesis, normal pollen shedding, and normal pollen development as determined by Alexandar staining and microscopic observation.
Double copy R0 events were used in testing to approximate a single copy homozygous event. Plants were sprayed with glyphosate at two different growth stages to determine if the presence of the mts-siRNA target element in the recombinant DNA construct provided vegetative glyphosate tolerance and glyphosate-induced tassel sterility. The plants were sprayed in a greenhouse with 1× glyphosate (0.75 lb ae/acre) applied at the V5 stage followed by 1× glyphosate (0.75 lb ae/acre) applied at the V8 stage. Seven days after the V5 stage glyphosate application, plants were scored for vegetative injury with scores of ≦10% injury considered as showing vegetative glyphosate tolerance (% Vegetative Tolerant). Male sterility was measured in two ways. […] Anthers were then collected and dissected to microscopically observe pollen development. Anthers for each event were tested for no viable pollen grains produced as detected by Alexandar staining under microscopic observation and scored as not producing any viable pollen (% No Pollen). In plants not sprayed with glyphosate, tassel development, anther extrusion, and pollen development were normal.
The mts-siRNA target elements were tested in multiple transformation vector configurations. Each transformation vector was used to produce multiple R0 plants with each R0 plant representing a unique transgenic event made using the same transformation vector. Data for three different transformation vector configurations are provided as Tables 11 and 12.

transgenic maize plants = settings: for CIPVT (LSD = 8.1): glyphosate 1.5 lbs ae/acre at V2, 0.75 at V8, 0.75 at V10, range over events; for Avg. plant height (inches) (LSD = 6.9): in vivo

B1: SEQ ID NO: 8: mts-siRNA target element, nucleotide positions 247 to 441 of cDNA SEQ ID NO: 21 (nucleic acid)
DNA: AGATTGGTCATACACTAGATAGGGCTAGATCACTCGGGTCGCCACAAGTTGAAGAATGCAAAGAGTGTCCACATGATTTCATGGTGATGAACAGTGATTTTATGAGCAAACTAGCAAAGGATAATCAGTTGCATATATGTGATGAAGACCGATCAGTTTCCGAGCAAAGTAGCAAATGAGTCATCGAAGCTGTCA
modifications: Zea mays
- % Vegetative Tolerant ([1]; glyphosate 0.75 lb ae/acre at V5 then V8, <=10% injury 7 days after V5 spray, listed as 8): 90%
- % Completely Male-sterile ([1]; no anther extrusion up to S90+12 after V8 glyphosate, listed as 8): 100%
- % No Pollen ([1]; no viable pollen by Alexandar staining): 50%
- AES90+8 (LSD = 10) (transgenic maize plants; average anther extrusion at S90+8, same glyphosate regimen, listed as 8): 15.75-17.85%
- Seed Yield bu/acre (LSD = 24.7) (transgenic maize plants; end of season): 80-90 bu/acre
- CIPVT (LSD = 8.1) (transgenic maize plants): No significant difference
- CIPVT (LSD = 8.1) (transgenic maize plants; listed as 8): 2.5-2.7%
- Avg. plant height (inches) (LSD = 6.9) (transgenic maize plants): No significant difference
- Avg. plant height (inches) (LSD = 6.9) (transgenic maize plants; listed as 8): 80.1 inches
